Measurements taken from article PMC2140218.
Read-outs that look alike come from different tables or passages of the source.

Legend:
[1] = biological target: taxol-stabilized bovine brain microtubules (bovine) (UniProt Q6B856); assay: co-sedimentation
[2] = biological target: taxol-stabilized bovine brain microtubules (bovine) (UniProt Q6B856); assay: co-sedimentation; remark: listed apart in the source

B1: Stu2p C557 (domain or fragment)
chain: MSGEEEVDYTTLPLEERLTYKLWKARLEAYKELNQLFRNSVGDISRDDNIQIYWRDPTLFAQYITDSNVVAQEQAIVALNSLIDAFASSSLKNAHNITLISTWTPLLVEKGLTSSRATTKTQSMSCILSLCGLDTSITQSVELVIPFFEKKLPKLIAAAANCVYELMAAFGLTNVNVQTFLPELLKHVPQLAGHGDRNVRSQTMNLIVEIYKVTGNNSDLLEEILFKKLKPIQVKDLHKLFAKVGDEPSSSKMLFEWEKRELEKKRSQEEEARKRKSILSNDEGEYQIDKDGDTLMGMETDMPPSKQQSGVQIDTFSMLPEETILDKLPKDFQERITSSKWKDRVEALEEFWDSVLSQTKKLKSTSQNYSNLLGIYGHIIQKDANIQAVALAAQSVELICDKLKTPGFSKDYVSLVFTPLLDRTKEKKPSVIEAIRKALLTICKYYDPLASSGRNEDMLKDILEHMKHKTPQIRMECTQLFNASMKEEKDGYSTLQRYLKDEVVPIVIQIVNDTQPAIRTIGFESFAILIKIFGMNTFVKTLEHLDNLKRKKIEETV
modifications: [35S]methionine label
- fold higher Kd than full length Stu2p [1]: 30 fold

B2: Stu2p C657 (domain or fragment)
chain: MSGEEEVDYTTLPLEERLTYKLWKARLEAYKELNQLFRNSVGDISRDDNIQIYWRDPTLFAQYITDSNVVAQEQAIVALNSLIDAFASSSLKNAHNITLISTWTPLLVEKGLTSSRATTKTQSMSCILSLCGLDTSITQSVELVIPFFEKKLPKLIAAAANCVYELMAAFGLTNVNVQTFLPELLKHVPQLAGHGDRNVRSQTMNLIVEIYKVTGNNSDLLEEILFKKLKPIQVKDLHKLFAKVGDEPSSSKMLFEWEKRELEKKRSQEEEARKRKSILSNDEGEYQIDKDGDTLMGMETDMPPSKQQSGVQIDTFSMLPEETILDKLPKDFQERITSSKWKDRVEALEEFWDSVLSQTKKLKSTSQNYSNLLGIYGHIIQKDANIQAVALAAQSVELICDKLKTPGFSKDYVSLVFTPLLDRTKEKKPSVIEAIRKALLTICKYYDPLASSGRNEDMLKDILEHMKHKTPQIRMECTQLFNASMKEEKDGYSTLQRYLKDEVVPIVIQIVNDTQPAIRTIGFESFAILIKIFGMNTFVKTLEHLDNLKRKKIEETVKTLPNFSIASGSTHSTIETNKQTGPMENKFLLKKSSVLPSKRVASSPLRNDNKSKVNPIGSVASASKPSMVAANNKSRVLLTSKSLATPKNVVANSTDKN
modifications: [35S]methionine label
- fold higher Kd than full length Stu2p [1]: 1.6 fold

B3: Stu2p (natural protein)
chain: MSGEEEVDYTTLPLEERLTYKLWKARLEAYKELNQLFRNSVGDISRDDNIQIYWRDPTLFAQYITDSNVVAQEQAIVALNSLIDAFASSSLKNAHNITLISTWTPLLVEKGLTSSRATTKTQSMSCILSLCGLDTSITQSVELVIPFFEKKLPKLIAAAANCVYELMAAFGLTNVNVQTFLPELLKHVPQLAGHGDRNVRSQTMNLIVEIYKVTGNNSDLLEEILFKKLKPIQVKDLHKLFAKVGDEPSSSKMLFEWEKRELEKKRSQEEEARKRKSILSNDEGEYQIDKDGDTLMGMETDMPPSKQQSGVQIDTFSMLPEETILDKLPKDFQERITSSKWKDRVEALEEFWDSVLSQTKKLKSTSQNYSNLLGIYGHIIQKDANIQAVALAAQSVELICDKLKTPGFSKDYVSLVFTPLLDRTKEKKPSVIEAIRKALLTICKYYDPLASSGRNEDMLKDILEHMKHKTPQIRMECTQLFNASMKEEKDGYSTLQRYLKDEVVPIVIQIVNDTQPAIRTIGFESFAILIKIFGMNTFVKTLEHLDNLKRKKIEETVKTLPNFSIASGSTHSTIETNKQTGPMENKFLLKKSSVLPSKRVASSPLRNDNKSKVNPIGSVASASKPSMVAANNKSRVLLTSKSLATPKNVVANSTDKNEKLIEEYKYRLQKLQNDEMIWTKERQSLLEKMNNTENYKIEMIKENEMLREQLKEAQSKLNEKNIQLRSKEIDVNKLSDRVLSLENELRNMEIELDRNKKRNDTNLQSMGTISSYSIPSSTVSSNYGVKSLSSALPFKEEEDVRRKEDVNYERRSSESIGDLPHRVNSLNIRPYRKNGTGVSSVSDDLDIDFNDSFASEESYKRAAAVTSTLKARIEKMKAKSRREGTTRT
modifications: [35S]methionine label
- Kd [2]: 560 nM
- Kd [1]: 540 nM

B4: Stu2p N658 (domain or fragment)
chain: EKLIEEYKYRLQKLQNDEMIWTKERQSLLEKMNNTENYKIEMIKENEMLREQLKEAQSKLNEKNIQLRSKEIDVNKLSDRVLSLENELRNMEIELDRNKKRNDTNLQSMGTISSYSIPSSTVSSNYGVKSLSSALPFKEEEDVRRKEDVNYERRSSESIGDLPHRVNSLNIRPYRKNGTGVSSVSDDLDIDFNDSFASEESYKRAAAVTSTLKARIEKMKAKSRREGTTRT
modifications: [35S]methionine label
- fold higher Kd than full length Stu2p [1]: > 50 fold

B5: Stu2p N612 (domain or fragment)
chain: KVNPIGSVASASKPSMVAANNKSRVLLTSKSLATPKNVVANSTDKNEKLIEEYKYRLQKLQNDEMIWTKERQSLLEKMNNTENYKIEMIKENEMLREQLKEAQSKLNEKNIQLRSKEIDVNKLSDRVLSLENELRNMEIELDRNKKRNDTNLQSMGTISSYSIPSSTVSSNYGVKSLSSALPFKEEEDVRRKEDVNYERRSSESIGDLPHRVNSLNIRPYRKNGTGVSSVSDDLDIDFNDSFASEESYKRAAAVTSTLKARIEKMKAKSRREGTTRT
modifications: [35S]methionine label
- fold higher Kd than full length Stu2p [1]: 3.5 fold

B6: Stu2p N558 (domain or fragment)
chain: KTLPNFSIASGSTHSTIETNKQTGPMENKFLLKKSSVLPSKRVASSPLRNDNKSKVNPIGSVASASKPSMVAANNKSRVLLTSKSLATPKNVVANSTDKNEKLIEEYKYRLQKLQNDEMIWTKERQSLLEKMNNTENYKIEMIKENEMLREQLKEAQSKLNEKNIQLRSKEIDVNKLSDRVLSLENELRNMEIELDRNKKRNDTNLQSMGTISSYSIPSSTVSSNYGVKSLSSALPFKEEEDVRRKEDVNYERRSSESIGDLPHRVNSLNIRPYRKNGTGVSSVSDDLDIDFNDSFASEESYKRAAAVTSTLKARIEKMKAKSRREGTTRT
modifications: [35S]methionine label
- fold higher Kd than full length Stu2p [1]: 1.4 fold

B7: Stu2p C611 (domain or fragment)
chain: MSGEEEVDYTTLPLEERLTYKLWKARLEAYKELNQLFRNSVGDISRDDNIQIYWRDPTLFAQYITDSNVVAQEQAIVALNSLIDAFASSSLKNAHNITLISTWTPLLVEKGLTSSRATTKTQSMSCILSLCGLDTSITQSVELVIPFFEKKLPKLIAAAANCVYELMAAFGLTNVNVQTFLPELLKHVPQLAGHGDRNVRSQTMNLIVEIYKVTGNNSDLLEEILFKKLKPIQVKDLHKLFAKVGDEPSSSKMLFEWEKRELEKKRSQEEEARKRKSILSNDEGEYQIDKDGDTLMGMETDMPPSKQQSGVQIDTFSMLPEETILDKLPKDFQERITSSKWKDRVEALEEFWDSVLSQTKKLKSTSQNYSNLLGIYGHIIQKDANIQAVALAAQSVELICDKLKTPGFSKDYVSLVFTPLLDRTKEKKPSVIEAIRKALLTICKYYDPLASSGRNEDMLKDILEHMKHKTPQIRMECTQLFNASMKEEKDGYSTLQRYLKDEVVPIVIQIVNDTQPAIRTIGFESFAILIKIFGMNTFVKTLEHLDNLKRKKIEETVKTLPNFSIASGSTHSTIETNKQTGPMENKFLLKKSSVLPSKRVASSPLRNDNKS
modifications: [35S]methionine label
- fold higher Kd than full length Stu2p [1]: 6 fold
